The results in this text go back to US20070041972A1 (Alexion, published 2007).

In assay [1] the target is T1, human high affinity receptor for IgG (FcγRI) on U937 cells (human, UniProt P12314 16-374).
T1 construct: whole, on cells; also called FcγRI receptor
Nature of the assay: flow cytometry competition with 3.0 ng/mL biotinylated hIgG on U937 cells.
Method: The antibody produced in accordance with this Example was tested to evaluate binding to the human high affinity receptor for IgG (FcγRI).

The target of assay [2] is T2, human low affinity receptor for IgG (FcγRII) on K562 cells (human, UniProt P12318 34-317).
T2 construct: whole, on cells
T2 sequence (looked up): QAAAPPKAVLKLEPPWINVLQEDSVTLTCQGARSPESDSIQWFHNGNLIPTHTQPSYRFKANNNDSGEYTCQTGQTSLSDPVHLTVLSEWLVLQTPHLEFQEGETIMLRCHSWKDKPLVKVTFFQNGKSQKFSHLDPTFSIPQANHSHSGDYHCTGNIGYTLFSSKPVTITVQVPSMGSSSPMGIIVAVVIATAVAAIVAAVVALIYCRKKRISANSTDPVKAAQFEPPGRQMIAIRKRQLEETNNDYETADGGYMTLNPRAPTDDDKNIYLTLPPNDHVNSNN
Briefly: flow cytometry on K562 cells, antibody complexed with FITC-rabbit Fab'2 anti-human Fab'2.
From the text: Binding of the FITC—rabbit Fab′2 anti-human Fab′2 antibodies alone is also indicated.

B1: chimeric OKT3 hG2/G4 recombinant antibody (murine OKT3 variable regions, engineered human IgG2/IgG4 heavy chain constant region, human kappa constant region) (antibody)
heavy: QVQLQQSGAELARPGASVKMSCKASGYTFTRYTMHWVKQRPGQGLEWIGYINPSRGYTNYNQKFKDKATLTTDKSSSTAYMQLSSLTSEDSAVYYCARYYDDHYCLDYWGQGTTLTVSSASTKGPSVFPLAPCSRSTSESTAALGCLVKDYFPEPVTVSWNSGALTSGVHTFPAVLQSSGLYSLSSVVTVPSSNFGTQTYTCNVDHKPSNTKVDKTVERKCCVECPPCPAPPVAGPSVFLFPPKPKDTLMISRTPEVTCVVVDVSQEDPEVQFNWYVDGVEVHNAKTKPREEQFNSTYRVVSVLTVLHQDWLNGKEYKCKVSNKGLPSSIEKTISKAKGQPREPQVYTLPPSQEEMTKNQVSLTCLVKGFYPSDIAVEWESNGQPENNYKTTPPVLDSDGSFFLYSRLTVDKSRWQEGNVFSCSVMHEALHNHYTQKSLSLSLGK
light: QIVLTQSPAIMSASPGEKVTMTCSASSSVSYMNWYQQKSGTSPKRWIYDTSKLASGVPAHFRGSGSGTSYSLTISGMEAEDAATYYCQQWSSNPFTFGSGTKLEIKRTVAAPSVFIFPPSDEQLKSGTASVVCLLNNFYPREAKVQWKVDNALQSGNSQESVTEQDSKDSTYSLSSTLTLSKADYEKHKVYACEVTHQGLSSPVTKSFNRGEC
notes: Made in two expression systems; also called chimeric antibody containing an engineered IgG2/IgG4 human constant region
For B1, the binding result in assay [1] and in assay [2] was “no binding” each time.
